Molecular target: HLA-A2.1 (Homo sapiens, UniProt P04439, D140Y/D185E/D98H/E176V/E277Q/G131W/G231S/I119V/I121R/I166T/I218V/L300P/L318F/N151K/N90K/P208A/P217A/Q86G/Q94H/R138H/R169H/T345S)
Test: T2 cell HLA-A2.1 stabilisation (peptide binding) assay by flow cytometry, method of Stauss et al.
Format: cell-based
Conditions: T2 cells, β2 microglobulin 5 μg/ml, peptides at 100, 10, 1 and 0.1 μg/ml, 4 hours 37° C., W6/32 + FITC anti-mouse IgG, FACScan; FIG. 3
From the text: The epitope is synthesized and tested for its ability to bind a MHC receptor. For example, in one preferred assay, cells displaying the MHC I receptor can be used to measure the binding affinity of candidate peptides labeled with a radionuclide. Another preferred approach measures the ability of a peptide to bind to an MHC I receptor using a cell culture-based assay. In this assay, cells lacking transporters associated with antigen processing (TAP) are used to determine whether or not a candidate peptide has the ability to bind to the MHC I receptor. […] When the cell is flooded with exogenous peptide that can bind to the MHC I cleft, expression of the receptor is restored. This can be monitored by several means such as RIA, FACS, and the like. Using TAP^− cells, one of skill in the art can screen large numbers of potential candidate peptides for receptor binding without having to perform detailed binding affinity analysis.
Binding of a candidate epitope to HLA-A2.1 was assayed according to the method of Stauss et al., (Proc Natl Acad Sci USA 89(17):7871-5 (1992)). […] Peptides were added at 100, 10, 1 and 0.1 μg/ml. The plate was rocked gently for 2 minutes and then incubated for 4 hours in a 5% CO2 incubator at 37° C. After the unbound peptide was removed by washing twice with IMDM, a saturating amount of monoclonal antibody W6/32 (Sigma) was added. […]

FLPWHRLFLL (Homo sapien) [tyrosinase 207-216]
binding to HLA-A2.1 (surface HLA-A2.1 molecules stabilized by peptide binding, fluorescence): bind HLA-A2.1 to a similar extent as the known A2.1 binder FLPSDYFPSV

Source: patent US6861234B1, “Method of epitope discovery” (MannKind Corporation, priority 2000, dated 2005)
